Legend:
[1] = tested on: Diels-Alderase DA_20_10, variant of DA_20_00 (Loligo vulgaris diisopropylfluorophosphatase scaffold, SEQ ID NO:2) with A21T/A74I/S271A/A173C/Q149R/A272N, SEQ …; experiment: Kinetics of Diels-Alder reaction catalysed by optimized DA_20_10; assay type: biochemical; details: 298K; PBS; 20 μM protein; error = 95% confidence interval; read-out: KM-dienophile
Experimental: (A) Dependence of reaction velocity on diene concentration for different fixed dienophile concentrations. The diene concentration was varied from 3.0 to 0.18 mM with a fixed concentration of 100 mM (⋄), 66 mM (Δ), 44 mM (⋄), 30 mM (◯), 20 mM (◯), or 13 mM (●) dienophile (B) Dependence of reaction velocity on dienophile concentration for different fixed diene concentrations. The dienophile was varied from 100 to 13.0 mM with a fixed concentration of 3 mM (♦), 2 mM (▴), 1.3 mM (∇), 0.9 mM (Δ), 0.6 mM (⋄), 0.4 mM (□), 0.26 mM (◯), or 0.18 mM (●) […]. Reactions were carried out with 20 μM protein in PBS at 298 K.
(§1) The Diels-Alder reactions were performed in PBS, at 25° C., with 4% DMSO. The DMSO came from the diene, for which the stock solution (100 mM) was made in DMSO and always diluted such that the final reaction would contain 4% DMSO. After incubation of the desired amount of diene and dienophile in the presence or absence of the protein, time points were taken of the reaction (5 μL) and quenched in a solution of 80:20 acetonitrile:water with 0.1% formic acid and 1 mM Benzoic Acid (95 μL). This reaction was incubated for 5 minutes and then the precipitated protein filtered using a Millipore multiscreen solvinert filter plate (Product Number: MSRLN0450). 20 μL of the filtered quench solution was then injected and analyzed using a liquid chromatography-tandem mass spectroscopy (LC-MSMS) assay.
To summarize the optimization rounds, residues contacting the transition state in DA—20—00 were mutated individually to sets of residues predicted to retain or improve transition state binding and bolster the two catalytic residues. […] Three of the mutations (FIG. 6C) likely improve the packing around the transition state (A741, A21 T) or catalytic glutamine (A173C). Two of the mutations likely improve the overall electrostatic complementarity with the bound substrates and transition state: Q149R hydrogen bonds to the carboxylate on the diene and S271A makes the dienophile environment more non polar.
The kinetics of the DA—20—10 catalyzed reaction was characterized by measuring the dependence of the reaction velocity on the concentration of both diene and dienophile. The effective molarity (kcat/kuncat) of DA—20—10 is 100 M, and the rate enhancement (kcat/(kuncat*KM_diene)) in the presence of saturating dienophile and limiting diene is 1.0×10^5. At high substrate concentrations DA—20—10 proceeds for more than 30 turnovers before the enzyme loses activity. At higher enzyme concentrations more than 80% of the diene substrate is converted to product.
The errors represent the calculated 95% confidence interval. The parameter a describes the cooperativity of binding between the two substrates: a value greater than one indicates negative cooperativity, whereas a value lower then one indicates positive cooperativity. α could not be determined for DA—20—00. Kinetic parameters for catalytic antibodies 7D4 and 4D5 were taken from (10, 17).

[2] = tested on: catalytic antibody mAb 7D4; details: 310K; read-out: KM-dienophile; cited from earlier work
[3] = tested on: catalytic antibody mAb 4D5; details: 310K; read-out: KM-dienophile; cited from earlier work
catalytic antibody 1E9 = details: with N-ethyl maleimide as second substrate; cited from earlier work
[4] = Diels-Alder activity assay with purified protein, LC-MSMS product detection; assay type: biochemical; details: PBS
Experimental: The observed velocity for each mutant was normalized by the velocity of DA—20—00 in order to determine the effective rate enhancement conferred by each mutation. The reactions were done at 1 mM diene, and 10 mM dienophile, PBS, 298K, and 100 μM protein.
Mutations showing enhanced activity on DA—20—04 were sequenced, grown large scale, and assayed. The assay was done at 0.1 mM dieine, 3 mM dienophile, PBS, 298K, and 20 μM protein.
as §1
A total of 43 variants were assayed using the standard activity assay. The observed activities are described in Table 2. In Table 2, the Expression column provides the number of times the mutant was expressed; the Observed column reports the raw signal level out of the mass-spec for the product (the Observed column is not normalized nor background corrected); the Concentration column provides the concentration of the protein after large-scale expression. […]

[5] = Plate assay of crude cell lysate, second round of active site optimization; assay type: biochemical; details: Mutations Recombined; single mutations on DA_20_04; Neg_Control 0, Pos_Control 1
Experimental: Since it was unreasonable to prepare the 176 enzyme variants in large scale, a plate assay was developed in which colonies directly from a Kunkel mutagenesis (8) reaction could be screened. Kunkel mutagenesis reactions were transformed directly into BL21(DE3)™ (Invitrogen) in order to generate each of the desired mutants. Four colonies from each plated reaction was picked and grown at 37° C. in 0.5 mL of LB-Kanamycin overnight. […]. This culture was grown for 2-3 hours at 37° C., after which 50 μL of 10 mM IPTG was added to each well (0.5 mM Final) in order to induce expression. The cells were then grown for 24 hours at 18° C., harvested, and stored at −20° C. until ready for assaying. To assay, crude cell lysate was prepared by resuspending the cells in 500 uL of PBS and lysing through 3 freeze/thaw cycles (15 minutes at −80° C., 40 minutes at 25° C.), followed by centrifugation at 4000 rpm for 30 minutes. […] Samples from each reaction were then quenched and product detected using a liquid chromatography-tandem mass spectroscopy.
To help remove some of this noise, samples showing WT activity were discarded if at least 2 of the other colonies picked from that Kunkel reaction did show an effect on activity (either greater or less than WT). […] The relative effect of each mutation was calculated. […]

[6] = Production run and effects of knocking out the catalytic residues; assay type: biochemical; details: for decrease of catalytic activity on mutation of a catalytic residue of DA_20_10: relative to DA_20_10
Experimental: The reaction was carried out in 1 mM diene, 50 mM dienophile, 200 μM enzyme, in PBS at 298K. The proteins assayed are DA—20—10 (υ), Y121F (▴), Q195E (x), and tela scaffold (*), uncatalyzed (λ).
To determine whether the observed activity depends on the designed active site, we investigated the contributions of the designed catalytic residues in DA—20—10 to catalysis. Glutamine 195 was mutated into a glutamate (Q195E) and tyrosine 121 was mutated into a phenylalanine (Y121F). We had originally incorporated a glutamine rather than a glutamate at this position, despite the fact that the carboxylate should make a stronger hydrogen bond with the diene carbamate. This hydrogen bond should increase the energy of the diene HOMO (and thus decrease the energy gap with the dienophile LUMO), and more greatly stabilize the transition state. However, we were concerned that the substantial free energy cost of desolvating the carboxylate would considerably reduce binding affinity for the diene. […] The Y121F mutation decreases catalytic activity by 27-fold, consistent with the removal of a hydrogen bond that contributes to dienophile binding, stabilizes the dienophile LUMO, and is enhanced in the transition state.
Timepoints were taken and measured as previously described over a period of 60 hours.

C=CC(=O)N(C)C [dienophile, N,N-dimethylacrylamide]
Km [1]: 58.1 ± 14 mM
Km [2]: 1.7 mM
Km [3]: 5.9 mM

O=S1(=O)C(Cl)=C(Cl)C(Cl)=C1Cl [tetrachlorothiophene dioxide]
catalytic proficiency (catalytic antibody 1E9): 10^7 M^−1
effective molarity (catalytic antibody 1E9): 10^3 M

B1: DA_20_00: original Diels-Alder enzyme design on diisopropylfluorophosphatase scaffold (PDB-ID 1E1A) (protein)
chain: MEIPVIEPLFTKVTEDIPGAAGPVFDKNGDFYIVAPYVEVNGKPAGEILRIDLKTGKKTVICKPEVNGYGGIPAGCQCDRDANQLFVADMRLGLLVVQTDGTFEEIAKKDSEGRRMQGCAYCAFDYEGNLWITAPAGEVAPADFTISLQEKFGSIYCFTTDGQMIQVDTAFQAPAGIAVRHMNDGRPYQLIVAEQPTKKLWSYDIKGPAKIENKKVWGHIPGTHKGGAAGMDFDEDNNLLVANWGSSHIEVFGPDGGQPKMRIRCPFEKPSALHFKPQTKTIFVTEHENNAVWKFEWQRNGKKQYCETLKFGIFGSLEHHHHHH
modifications: Enzyme catalyst for Diels-Alder reaction
activity versus background reaction (in words) ([4]; 25° C., 4% DMSO): increased activity over the background reaction

B2: DA_20_04: DA_20_00 triple mutant A21T, A74I, S271A (protein)
chain: MEIPVIEPLFTKVTEDIPGATGPVFDKNGDFYIVAPYVEVNGKPAGEILRIDLKTGKKTVICKPEVNGYGGIPIGCQCDRDANQLFVADMRLGLLVVQTDGTFEEIAKKDSEGRRMQGCAYCAFDYEGNLWITAPAGEVAPADFTISLQEKFGSIYCFTTDGQMIQVDTAFQAPAGIAVRHMNDGRPYQLIVAEQPTKKLWSYDIKGPAKIENKKVWGHIPGTHKGGAAGMDFDEDNNLLVANWGSSHIEVFGPDGGQPKMRIRCPFEKPAALHFKPQTKTIFVTEHENNAVWKFEWQRNGKKQYCETLKFGIFGSLEHHHHHH
modifications: Enzyme catalyst for Diels-Alder reaction
notes: DA_20_00 triple mutant A21T, A74I, S271A
Effect on [5]: 1
product formed per hour ([4]; 0.1 mM diene, 3 mM dienophile, 298K, 20 μM protein): 21.9 nM of product/hour
rate enhancement over DA_20_00 (velocity normalized by velocity of DA_20_00) ([4]; 1 mM diene, 10 mM dienophile, 298K, 100 μM protein): 20.5 fold

B3: Q195E: DA_20_10 with glutamine 195 mutated into a glutamate (protein)
chain: MEIPVIEPLFTKVTEDIPGAAGPVFDKNGDFYIVAPYVEVNGKPAGEILRIDLKTGKKTVICKPEVNGYGGIPAGCQCDRDANQLFVADMRLGLLVVQTDGTFEEIAKKDSEGRRMQGCAYCAFDYEGNLWITAPAGEVAPADFTISLQEKFGSIYCFTTDGQMIQVDTAFQAPAGIAVRHMNDGRPYQLIVAEEPTKKLWSYDIKGPAKIENKKVWGHIPGTHKGGAAGMDFDEDNNLLVANWGSSHIEVFGPDGGQPKMRIRCPFEKPSALHFKPQTKTIFVTEHENNAVWKFEWQRNGKKQYCETLKFGIFGSLEHHHHHH
decrease of catalytic activity on mutation of a catalytic residue of DA_20_10 [6]: 450 fold

B4: Y121F: DA_20_10 with tyrosine 121 mutated into a phenylalanine (protein)
chain: MEIPVIEPLFTKVTEDIPGAAGPVFDKNGDFYIVAPYVEVNGKPAGEILRIDLKTGKKTVICKPEVNGYGGIPAGCQCDRDANQLFVADMRLGLLVVQTDGTFEEIAKKDSEGRRMQGCAFCAFDYEGNLWITAPAGEVAPADFTISLQEKFGSIYCFTTDGQMIQVDTAFQAPAGIAVRHMNDGRPYQLIVAEQPTKKLWSYDIKGPAKIENKKVWGHIPGTHKGGAAGMDFDEDNNLLVANWGSSHIEVFGPDGGQPKMRIRCPFEKPSALHFKPQTKTIFVTEHENNAVWKFEWQRNGKKQYCETLKFGIFGSLEHHHHHH
decrease of catalytic activity on mutation of a catalytic residue of DA_20_10 [6]: 27 fold

B5: wild-type scaffold: diisopropylfluorophosphatase from Loligo vulgaris (PDB-ID 1E1A) (protein, listed as Loligo vulgaris)
chain: MEIPVIEPLFTKVTEDIPGAEGPVFDKNGDFYIVAPEVEVNGKPAGEILRIDLKTGKKTVICKPEVNGYGGIPAGCQCDRDANQLFVADMRLGLLVVQTDGTFEEIAKKDSEGRRMQGCNDCAFDYEGNLWITAPAGEVAPADYTRSMQEKFGSIYCFTTDGQMIQVDTAFQFPNGIAVRHMNDGRPYQLIVAETPTKKLWSYDIKGPAKIENKKVWGHIPGTHEGGADGMDFDEDNNLLVANWGSSHIEVFGPDGGQPKMRIRCPFEKPSNLHFKPQTKTIFVTEHENNAVWKFEWQRNGKKQYCETLKFGIF
activity (in words) [6]: did not show any measurable activity

— patent publication US8688427B2, “Enzyme catalysts for diels-alder reactions” (University of Washington, priority 2008, dated 2014)
